Results on one substance are retold here after US20040152079A1.

The assay addresses PMN receptor for mini TyrRS (on human PMNs) (human). The experiment in a line: competition with ^125I-mini TyrRS on human PMNs (FIG. 10).

“S. cerevisiae TyrRS (from UniProt P36421 1-394) (enzyme)” yielded a fold of the dissociation constant against human mini TyrRS below 200 fold.
